For the experiment, the target named is demineralized, guanidine-extracted bovine collagen carrier matrix material (bovine) (UniProt P02453). The experiment is described as follows: OP-1 in 47.5% ethanol/0.01% TFA incubated 3 h with bovine collagen matrix; fraction bound to the matrix before lyophilization.

OP-1, sequence (P18075 293-431 limits assumed): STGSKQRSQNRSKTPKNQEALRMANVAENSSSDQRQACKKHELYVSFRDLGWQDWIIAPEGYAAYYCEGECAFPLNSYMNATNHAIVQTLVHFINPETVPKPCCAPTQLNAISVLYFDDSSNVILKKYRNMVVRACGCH

Consider “OP-1 (from UniProt P18075 293-431) (ligand)”, for which the % OP-1 bound at 3 hr was 53 to 64%.

For the origin of these results see US6461630.
